Ends that are not written are not given here.
Key:
Experiment in all cases: peptide microarray
ApoC3 peptide … E70C = ApoC3 peptide … E70C (human, cyclic constrained)
Method: (§1) F64 was completely variable.
(§2) Pre: staining of one of the ApoC3 peptide microarrays was done with the secondary antibody goat anti-human IgG (Fe) DyLight680 (1:5000) and control antibody mouse monoclonal anti-HA (12CA5) DyLight800 (1:2000) to investigate background interactions of the secondary antibody with the antigen-derived peptides that could interfere with the main assays. Subsequent incubation of other ApoC3 peptide microarrays with antibody samples was followed by staining with secondary and control antibodies as well as read-out at scanning intensities of 7/7 (red/green). The additional HA peptides framing the peptide arrays were stained as internal quality control to confirm the assay quality and the peptide microarray integrity.

ApoC3 peptide … W65K = target: T1, ApoC3 peptide … W65K (human, not fully specified (bridges); also: cyclic constrained, ring type and places not given here)
T1 peptide: DKFSEFKDLDPEV
Method: as §1, §2

ApoC3 peptide … P69E = target: T2, ApoC3 peptide … P69E (human, not fully specified (bridges); also: cyclic constrained)
T2 peptide: DKFSEFWDLDEEV
Method: as §1, §2

ApoC3 peptide … E70F = ApoC3 peptide … E70F (human, cyclic constrained)
Method: as §1, §2

ApoC3 peptide … D59H = target: T3, ApoC3 peptide … D59H (human, cyclic constrained)
T3 peptide: HKFSEFWDLDPEV
Method: as §1, §2

ApoC3 peptide … L67N = target: T4, ApoC3 peptide … L67N (human, not fully specified (bridges); also: cyclic constrained)
T4 peptide: DKFSEFWDNDPEV
Method: as §1, §2

ApoC3 peptide … D59G = target: T5, ApoC3 peptide … D59G (human, cyclic constrained)
T5 peptide: GKFSEFWDLDPEV
Method: as §1, §2

ApoC3 peptide … K60W = target: T6, ApoC3 peptide … K60W (human, not fully specified (bridges); also: cyclic constrained)
T6 peptide: DWFSEFWDLDPEV
Method: as §1, §2

ApoC3 peptide … F61I = target: T7, ApoC3 peptide … F61I (human, cyclic constrained)
T7 peptide: DKISEFWDLDPEV
Method: as §1, §2

ApoC3 peptide … V71G = ApoC3 peptide … V71G (human, cyclic constrained)
Method: as §1, §2

ApoC3 peptide … K60R = target: T8, ApoC3 peptide … K60R (human, not fully specified (bridges); also: cyclic constrained)
T8 peptide: DRFSEFWDLDPEV
Method: as §1, §2

ApoC3 peptide … W65Q = target: T9, ApoC3 peptide … W65Q (human, not fully specified (bridges); also: cyclic constrained, ring type and places not given here)
T9 peptide: DKFSEFQDLDPEV
Method: as §1, §2

ApoC3 peptide … L67V = target: T10, ApoC3 peptide … L67V (human, not fully specified (bridges); also: cyclic constrained)
T10 peptide: DKFSEFWDVDPEV
Method: as §1, §2

ApoC3 peptide … K60G = target: T11, ApoC3 peptide … K60G (human, not fully specified (bridges); also: cyclic constrained)
T11 peptide: DGFSEFWDLDPEV
Method: as §1, §2

ApoC3 peptide … D66R = target: T12, ApoC3 peptide … D66R (human, not fully specified (bridges); also: cyclic constrained)
T12 peptide: DKFSEFWRLDPEV
Method: as §1, §2

ApoC3 peptide … W65F = ApoC3 peptide … W65F (human, cyclic constrained)
Method: as §1, §2

[1] = target: T13, wild-type ApoC3 peptide DKFSEFWDLDPEV (SEQ ID NO: 44) (human, not fully specified (bridges); also: cyclic constrained, ring type and positions not given here)
T13 construct: 13 aa cyclic constrained peptide
T13 peptide: DKFSEFWDLDPEV
Method: as §1, §2

ApoC3 peptide … D66N = target: T14, ApoC3 peptide … D66N (human, not fully specified (bridges); also: cyclic constrained)
T14 peptide: DKFSEFWNLDPEV
Method: as §1, §2

ApoC3 peptide … D66H = target: T15, ApoC3 peptide … D66H (human, not fully specified (bridges); also: cyclic constrained)
T15 peptide: DKFSEFWHLDPEV
Method: as §1, §2

ApoC3 peptide … P69W = ApoC3 peptide … P69W (human, cyclic constrained)
Method: as §1, §2

ApoC3 peptide … D66Q = target: T16, ApoC3 peptide … D66Q (human, not fully specified (bridges); also: cyclic constrained)
T16 peptide: DKFSEFWQLDPEV
Method: as §1, §2

ApoC3 peptide … W65R = target: T17, ApoC3 peptide … W65R (human, not fully specified (bridges); also: cyclic constrained, ring type and places not given here)
T17 peptide: DKFSEFRDLDPEV
Method: as §1, §2

ApoC3 peptide … V71A = ApoC3 peptide … V71A (human, cyclic constrained)
Method: as §1, §2

ApoC3 peptide … S62I = ApoC3 peptide … S62I (human, cyclic constrained)
Method: as §1, §2

ApoC3 peptide … E63L = ApoC3 peptide … E63L (human, cyclic constrained)
Method: as §1, §2

ApoC3 peptide … D66A = target: T18, ApoC3 peptide … D66A (human, not fully specified (bridges); also: cyclic constrained)
T18 peptide: DKFSEFWALDPEV
Method: as §1, §2

ApoC3 peptide … F64W = target: T19, ApoC3 peptide … F64W (human, not fully specified (bridges); also: cyclic constrained)
T19 peptide: DKFSEWWDLDPEV
Method: as §1, §2

ApoC3 peptide … D68L = target: T20, ApoC3 peptide … D68L (human, cyclic constrained)
T20 peptide: DKFSEFWDLLPEV
Method: as §1, §2

ApoC3 peptide … L67I = target: T21, ApoC3 peptide … L67I (human, not fully specified (bridges); also: cyclic constrained)
T21 peptide: DKFSEFWDIDPEV
Method: as §1, §2

ApoC3 peptide … W65G = target: T22, ApoC3 peptide … W65G (human, not fully specified (bridges); also: cyclic constrained, ring type and places not given here)
T22 peptide: DKFSEFGDLDPEV
Method: as §1, §2

ApoC3 peptide … K60L = target: T23, ApoC3 peptide … K60L (human, not fully specified (bridges); also: cyclic constrained)
T23 peptide: DLFSEFWDLDPEV
Method: as §1, §2

ApoC3 peptide … V71Q = ApoC3 peptide … V71Q (human, cyclic constrained)
Method: as §1, §2

ApoC3 peptide … P69S = ApoC3 peptide … P69S (human, cyclic constrained)
Method: as §1, §2

ApoC3 peptide … K60E = target: T24, ApoC3 peptide … K60E (human, not fully specified (bridges); also: cyclic constrained)
T24 peptide: DEFSEFWDLDPEV
Method: as §1, §2

ApoC3 peptide … E63Q = ApoC3 peptide … E63Q (human, cyclic constrained)
Method: as §1, §2

ApoC3 peptide … D59K = target: T25, ApoC3 peptide … D59K (human, cyclic constrained)
T25 peptide: KKFSEFWDLDPEV
Method: as §1, §2

% of binding to wild-type peptide (ApoC3 peptide … E70C): 0%
% of binding to wild-type peptide (ApoC3 peptide … W65K): 0%
% of binding to wild-type peptide (ApoC3 peptide … P69E): 152%
% of binding to wild-type peptide (ApoC3 peptide … E70F): 9.36%
% of binding to wild-type peptide (ApoC3 peptide … D59H): 85.8%
% of binding to wild-type peptide (ApoC3 peptide … L67N): 19.8%
% of binding to wild-type peptide (ApoC3 peptide … D59G): 87.5%
% of binding to wild-type peptide (ApoC3 peptide … K60W): 78.6%
% of binding to wild-type peptide (ApoC3 peptide … F61I): 44.3%
% of binding to wild-type peptide (ApoC3 peptide … V71G): 109%
% of binding to wild-type peptide (ApoC3 peptide … K60R): 105%
% of binding to wild-type peptide (ApoC3 peptide … W65Q): 38.3%
% of binding to wild-type peptide (ApoC3 peptide … L67V): 56.5%
% of binding to wild-type peptide (ApoC3 peptide … K60G): 117%
% of binding to wild-type peptide (ApoC3 peptide … D66R): 0%
% of binding to wild-type peptide (ApoC3 peptide … W65F): 55.3%
% of binding to wild-type peptide [1]: 100%
% of binding to wild-type peptide (ApoC3 peptide … D66N): 0%
% of binding to wild-type peptide (ApoC3 peptide … D66H): 0%
% of binding to wild-type peptide (ApoC3 peptide … P69W): 13.7%
% of binding to wild-type peptide (ApoC3 peptide … D66Q): 0%
% of binding to wild-type peptide (ApoC3 peptide … W65R): 7.71%
% of binding to wild-type peptide (ApoC3 peptide … V71A): 85.2%
% of binding to wild-type peptide (ApoC3 peptide … S62I): 129%
% of binding to wild-type peptide (ApoC3 peptide … E63L): 10.1%
% of binding to wild-type peptide (ApoC3 peptide … D66A): 0%
% of binding to wild-type peptide (ApoC3 peptide … F64W): 69.5%
% of binding to wild-type peptide (ApoC3 peptide … D68L): 0%
% of binding to wild-type peptide (ApoC3 peptide … L67I): 105%
% of binding to wild-type peptide (ApoC3 peptide … W65G): 49.5%
% of binding to wild-type peptide (ApoC3 peptide … K60L): 89.2%
% of binding to wild-type peptide (ApoC3 peptide … V71Q): 81.4%
% of binding to wild-type peptide (ApoC3 peptide … P69S): 75.6%
% of binding to wild-type peptide (ApoC3 peptide … K60E): 223%
% of binding to wild-type peptide (ApoC3 peptide … E63Q): 46.3%
% of binding to wild-type peptide (ApoC3 peptide … D59K): 45.6%
B1: anti-ApoC3 antibody 6A6 (antibody, V domains shown)
VH: EVQLVESGGGLVQPGGSLRLSCAASGFTFSSYAGRWVRQVPGKGLEWVSSINAGGGSTSYADSVKGRFTISRDNAKNTLYLQMNSLKPEDTAKYYCTQNSYRYWGQGTRVAVSS
VL: DVVLTQTPGSLSVVPGESASISCKASQSLIHTDGKTYLYWLLQKPGQRPQLLIYQVSSHESGVPDRFTGSGSGTDFTLKISGVKAEDAGVYYCAQATYNPRTFGQGTKLEIK
notes: it was detected with goat anti-human IgG (Fc); also called mAb 6A6; llama antibody 6A6

Reference: patent US20190241648A1 (STATEN BIOTECHNOLOGY B V, published 2019)
